Measurements as given in paper doi:10.1101/2021.01.25.428026.

Experiments:
[1] = molecular target: recombinant DJ-1 C46A mutant (human) (UniProt Q99497); assay: non-reducing SDS-PAGE
[2] = molecular target: recombinant DJ-1 C53A mutant (human) (UniProt Q99497); assay: non-reducing SDS-PAGE

“recombinant DJ-1 C46A mutant (from UniProt Q99497 1-189) (natural protein)” was tested, and the stoichiometry N [1] was 3.
“recombinant DJ-1 C53A mutant (from UniProt Q99497 1-189) (natural protein)” gave a stoichiometry N [2] of 3.
